One data set deals with hammerhead ribozyme. The settings on record: retina of nude mice, toyocamycin drug pellet under dorsal skin, ribozyme-based sensor; cited from earlier work.
Data set [1] relates to luciferase reporter gene expression. As to the kind of experiment: Luciferase reporter assay of tetracycline-aptamer polyA switch constructs with and without tc. It is filed as cell-based, human. An excerpt: The general strategy for detecting and imaging proteins via modulation of polyA cleavage is critically dependent upon the highly efficient cleavage of the polyA signal at the 5′ UTR (FIG. 1). A first step was to test candidate polyA signals and associated upstream and downstream motifs that enable efficient polyA cleavage in cells. For testing polyA cleavage efficiency, a transient transfection assay involving a mammalian expression vector^49 was used with a GFP or luciferase reporter (merely as examples). Candidate polyA signal sequences were cloned at the 5′UTR of the reporter gene or transgene within the expression vector.
(In general: Reporter assays use an easily measured gene product as a stand-in for the process of interest.)

Turning to `N#Cc1cn([C@@H]2O[C@H](CO)[C@@H](O)[C@H]2O)c2ncnc(N)c12` [toyocamycin], the “induced luciferase reporter expression” value in the data set on hammerhead ribozyme is “up to 180 fold”.

B1: GP2SLGP2: two GP2 aptamers connected back to back (Helper and Center); SEQ ID NO: 59 (nucleic acid)
chain: GCTAGCCACACACACAAATCTGGGGAGGTGAAGAATACGACCACCTGCGTTTTATACTTTGTTAAAACATACCAGATCGAAAGATCTGGGGAGGTGAAGAATACGACCACCTAATAAAGTATAAAGTGCAAAACATACCAGATCTGTGTGTTGGTTTTTTGTGTGGAATTCCACACACACAAATCTGGGGAGGTGAAGAATACGACCACCTGCGTTTTATACTTTGTTAAAACATACCAGATCGAAAGATCTGGGGAGGTGAAGAATACGACCACCTAATAAAGTATAAAGTGCAAAACATACCAGATCTGTGTGTTGGTTTTTTGTGTGAACGGGGGAGGGGGAGGAAAGGGGGAGGGGGAGCGGCCGC
modifications: Synthetic Primerr
Take B1: the “induction (fold), ratio of luciferase activity with and without Tc” value (“induction (fold), ratio … with and without Tc” below) in data set [1] (5 μg/mL Tc) is 70 fold; in data set [1] (15 μg/mL Tc) it was 104 fold.

B2: D11A: GP2SLGP2 variant in stem/loop-II region; SEQ ID NO: 61 (nucleic acid)
chain: GCTAGCGAATTGCACACACACAAATCTGGGGAGGTGAAGAATACGACCACCTGCGTTTTATACTTTGTTAAAACATACCATCCTAAGCCTAAGGCAAACGCTATGGTATGGATGGGGAGGTGAAGAATACGACCACCTAATAAAGTATAAAGTGCAAAACATACCAGATCTGTGTGTTGGTTTTTTGTGTGGAATTCCACACACACAAATCTGGGGAGGTGAAGAATACGACCACCTGCGTTTTATACTTTGTTAAAACATACCAGATCGAAAGATCTGGGGAGGTGAAGAATACGACCACCTAATAAAGTATAAAGTGCAAAACATACCAGATCTGTGTGTTGGTTTTTTGTGTGAACGGGGGAGGGGGAGGAAAGGGGGAGGGGGAGCGGCCGC
modifications: Synthetic Primer
On to B2, for which the “induction (fold), ratio … with and without Tc” value in data set [1] (5 μg/mL Tc) is reported as 84 fold; in data set [1] (15 μg/mL Tc), 127 fold.

B3: C12: GP2SLGP2 variant in stem/loop-II region, central stem equivalent length 20 bp; SEQ ID NO: 60 (nucleic acid)
chain: CTGCAGCACACACACAAATCTGGGGAGGTGAAGAATACGACCACCTGCGTTTTATACTTTGTTAAAACATACCAGATCGAATTCGATCTGGGGAGGTGAAGAATACGACCACCTAATAAAGTATAAAGTGCAAAACATACCAGATCTGTGTGTTGGTTTTTTGTGTGGCTAGCCACACACACAAATCTGGGGAGGTGAAGAATACGACCACCTGCGTTTTATACTTTGTTAAAACATACCAGATCGAATTCGATCTGGGGAGGTGAAGAATACGACCACCTAATAAAGTATAAAGTGCAAAACATACCAGATCTGTGTGTTGGTTTTTTGTGTGAACGGGGGAGGGGGAGGAAAGGGGGAGGGGGAGCGGCCGC
modifications: Synthetic Primer
On to B3, for which the “induction (fold), ratio … with and without Tc” value in data set [1] (5 μg/mL Tc) turned out to be 94 fold; in data set [1] (15 μg/mL Tc) it was 151 fold.

These data come from patent US12215323B2, “Exogenous control of mammalian gene expression through aptamer-mediated modulation of polyadenylation” (Baylor College of Medicine, priority 2015, dated 2025).
